Measured values taken from US20190201491A1.
[ ]: non-standard residue; d: D form. Phe(4-Ac) = CC(=O)c1ccc(C[C@H](N)C(=O)O)cc1

Biological target: beta Klotho and FGFR1c (Fibroblast Growth Factor Receptor isoform 1c) expressed on the cell surface of a proprietary stable cell line (HEK293)
Test: cell-based or functional assay

| Average Fold Loss Potency Relative to bFGF-21-Q108-30KPEG, Elk1 luciferase reporter assay [fold] | EC50 (ng/mL), STEADY-GLO Elk1 luciferase reporter assay [ng/mL] | Emax (%) relative to WT bFGF-21, Elk1 luciferase reporter assay [%] | Fold loss potency relative to WT bFGF21, Elk1 luciferase reporter assay [fold] | Binder |
| --- | --- | --- | --- | --- |
| 0.8 |  |  |  | bFGF-21-Q108-30KPEG G170S (ligand) HPIPDSSPLLQFGGQVRQRYLYTDDAQETEAHLEIRADGTVVGAARQSPESLLELKALKPGVIQILGVKTSRFLCQGPDGKLYGSLHFDPKACSFRELLLEDGYNVY[Phe(4-Ac)](PEG 30 kDa)SETLGLPLRLPPQRSSNRDPAPRGPARFLPLPGLPAAPPDPPGILAPEPPDVGSSDPLSMVSPSYGRSPSYTS |
| 8.7 |  |  |  | bFGF-21-Q108-30KPEG G170D (ligand) HPIPDSSPLLQFGGQVRQRYLYTDDAQETEAHLEIRADGTVVGAARQSPESLLELKALKPGVIQILGVKTSRFLCQGPDGKLYGSLHFDPKACSFRELLLEDGYNVY[Phe(4-Ac)](PEG 30 kDa)SETLGLPLRLPPQRSSNRDPAPRGPARFLPLPGLPAAPPDPPGILAPEPPDVGSSDPLSMVDPSYGRSPSYTS |
| 1 | 147 | 73 | 4 | bFGF-21-Q108-30KPEG (ligand) HPIPDSSPLLQFGGQVRQRYLYTDDAQETEAHLEIRADGTVVGAARQSPESLLELKALKPGVIQILGVKTSRFLCQGPDGKLYGSLHFDPKACSFRELLLEDGYNVY[Phe(4-Ac)](PEG 30 kDa)SETLGLPLRLPPQRSSNRDPAPRGPARFLPLPGLPAAPPDPPGILAPEPPDVGSSDPLSMVGPSYGRSPSYTS |
| 3.7 |  |  |  | bFGF-21-Q108pAF-30KPEG-G170E (ligand) HPIPDSSPLLQFGGQVRQRYLYTDDAQETEAHLEIRADGTVVGAARQSPESLLELKALKPGVIQILGVKTSRFLCQGPDGKLYGSLHFDPKACSFRELLLEDGYNVY[Phe(4-Ac)](PEG 30 kDa)SETLGLPLRLPPQRSSNRDPAPRGPARFLPLPGLPAAPPDPPGILAPEPPDVGSSDPLSMVEPSYGRSPSYTS |
|  | 537 | 57 | 14 | bFGF-21-K91-30KPEG (ligand, not fully specified; also: PEG: linear aminooxy-PEG) HPIPDSSPLLQFGGQVRQRYLYTDDAQETEAHLEIRADGTVVGAARQSPESLLELKALKPGVIQILGVKTSRFLCQGPDGKLYGSLHFDP[Phe(4-Ac)](PEG 30 kDa)ACSFRELLLEDGYNVYQSETLGLPLRLPPQRSSNRDPAPRGPARFLPLPGLPAAPPDPPGILAPEPPDVGSSDPLSMVEPSYGRSPSYTS |
| 1.7 |  |  |  | bFGF-21-Q108-30KPEG G170A (ligand) HPIPDSSPLLQFGGQVRQRYLYTDDAQETEAHLEIRADGTVVGAARQSPESLLELKALKPGVIQILGVKTSRFLCQGPDGKLYGSLHFDPKACSFRELLLEDGYNVY[Phe(4-Ac)](PEG 30 kDa)SETLGLPLRLPPQRSSNRDPAPRGPARFLPLPGLPAAPPDPPGILAPEPPDVGSSDPLSMVAPSYGRSPSYTS |
|  | 347 | 50 | 9 | bFGF-21-G77-30KPEG (ligand, not fully specified; also: PEG: linear aminooxy-PEG) HPIPDSSPLLQFGGQVRQRYLYTDDAQETEAHLEIRADGTVVGAARQSPESLLELKALKPGVIQILGVKTSRFLCQ[Phe(4-Ac)](PEG 30 kDa)PDGKLYGSLHFDPKACSFRELLLEDGYNVYQSETLGLPLRLPPQRSSNRDPAPRGPARFLPLPGLPAAPPDPPGILAPEPPDVGSSDPLSMVEPSYGRSPSYTS |
|  | 556 | 38 | 14 | bFGF-21-R131-30KPEG (ligand, not fully specified; also: PEG: linear aminooxy-PEG) HPIPDSSPLLQFGGQVRQRYLYTDDAQETEAHLEIRADGTVVGAARQSPESLLELKALKPGVIQILGVKTSRFLCQGPDGKLYGSLHFDPKACSFRELLLEDGYNVYQSETLGLPLRLPPQRSSNRDPAP[Phe(4-Ac)](PEG 30 kDa)GPARFLPLPGLPAAPPDPPGILAPEPPDVGSSDPLSMVEPSYGRSPSYTS |
